Measurements taken from patent US20120276102A1 (Pfizer, published 2012).

T1: human gamma (γ) common chain expressed on CHO cells (human, UniProt P31785 23-369)
T1 construct: whole, on cells; Control protein; also called human IL-2R-γ common subunit; human γ-common
T1 sequence (looked up): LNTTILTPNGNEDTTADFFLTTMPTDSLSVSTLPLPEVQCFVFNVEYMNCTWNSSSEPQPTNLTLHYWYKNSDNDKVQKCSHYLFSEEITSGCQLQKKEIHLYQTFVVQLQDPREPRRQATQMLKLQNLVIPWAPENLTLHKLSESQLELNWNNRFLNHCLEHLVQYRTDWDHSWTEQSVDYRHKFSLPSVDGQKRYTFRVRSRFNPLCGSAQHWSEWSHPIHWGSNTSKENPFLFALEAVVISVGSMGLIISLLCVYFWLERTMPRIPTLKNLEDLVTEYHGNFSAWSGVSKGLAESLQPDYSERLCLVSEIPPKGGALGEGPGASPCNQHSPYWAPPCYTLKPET

T2: human IL-2Rβ (human, UniProt P14784 27-239)
T2 sequence (looked up): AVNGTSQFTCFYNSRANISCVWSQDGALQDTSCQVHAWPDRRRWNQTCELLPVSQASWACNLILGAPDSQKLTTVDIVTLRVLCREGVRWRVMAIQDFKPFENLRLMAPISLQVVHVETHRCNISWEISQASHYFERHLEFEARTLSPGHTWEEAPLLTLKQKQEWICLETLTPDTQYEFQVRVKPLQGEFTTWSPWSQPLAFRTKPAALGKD


What was measured:
[1] = target: T3, human IL-21R expressed on cells (human, UniProt Q9HBE5 20-538); test: cell-based ELISA on CHO cells transiently expressing human IL-21R; HRP anti-human IgG, A450
T3 construct: also called human IL-21R-BaF3; human IL-21R-TF1
Procedure: (§1) FIG. 6(a-l) depicts the binding of 21 anti-IL-21R IgGs to CHO cells transiently expressing human IL-21R (FIGS. 6a-c), rat IL-21R (FIGS. 6d-f), cynomolgus monkey IL-21R (FIGS. 6g-i), and human gamma common chain (FIGS. 6j-1). CHO cells were transiently transfected with IL-21R or the control gamma common chain, and binding was detected with HRP-conjugated anti-human IgG in a cell-based ELISA.
(§2) A subset of binding proteins was tested for binding to rat, cynomolgus monkey, human IL-21R, or human IL-2R-γ common subunit expressed transiently on the surfaces of CHO-PA-Dukx cells. Cells were transfected 48 hr prior to the assay. On the day of the assay, cells were washed gently 5× in PBS containing 0.9 mM CaCl₂ and 0.45 mM MgCl₂ (PBS/CaMg) on an automated plate washer (Titertek, Huntsville, Ala.), and blocked for 1 hr at RT in PBS/CaMg/5% nonfat dry milk. Conditioned media from transiently expressed anti-IL-21R IgGs were serially diluted in blocking buffer and added to the cells in the blocked plates for 1 hr at RT. Cells were washed 5× with PBS/CaMg and then incubated with horseradish peroxidase-conjugated anti-human IgG for 1 hr at RT. Cells were then washed 10× in PBS/CaMg and all of the wash buffer was removed. Cells were incubated with 100 μl TMB until the color reaction reached saturation, stopped with 100 μl of 0.18 M H₂SO₄, and read at A450 on a Perkin Elmer ENVISION™ plate reader.

[2] = target: T1, human gamma (γ) common chain expressed …; test: cell ELISA, CHO cells
Procedure: as §2

[3] = target: T4, rat IL-21R expressed on cells (rat); test: cell ELISA, CHO cells
T4 construct: whole, on cells
Procedure: as §2

[4] = target: T5, cynomolgus monkey IL-21R expressed on cells (cynomolgus monkey, UniProt G7Q0S8 41-559); test: cell ELISA, CHO cells
T5 construct: whole, on cells
Procedure: as §2

[5] = target: T3, human IL-21R expressed on cells; test: cell ELISA, CHO cells
Procedure: as §2

[6] = target: T4, rat IL-21R expressed on cells; test: cell-based ELISA on CHO cells transiently expressing rat IL-21R; HRP anti-human IgG, A450
Procedure: as §1, §2

[7] = target: T1, human gamma (γ) common chain expressed …; test: cell-based ELISA on CHO cells transiently expressing human gamma common chain; HRP anti-human IgG, A450
Procedure: as §1, §2

[8] = target: T5, cynomolgus monkey IL-21R expressed on …; test: cell-based ELISA on CHO cells transiently expressing cynomolgus monkey IL-21R; HRP anti-human IgG, A450
Procedure: as §1, §2

[9] = target: murine IL-21R expressed on cells (murine, UniProt Q9JHX3 20-529); test: cell-based or functional assay
[10] = target: T3, human IL-21R expressed on cells; test: cell-based or functional assay
human IL-2Rβ = target: T2, human IL-2Rβ; test: SPR, Ab captured
Procedure: (§3) The specificity of binding of a subset of transiently expressed anti-IL-21R binding proteins (here antibodies) was tested on a BIACORE™ 2000 surface plasmon resonance instrument. Anti-human-IgG, anti-murine immunoglobulin antibodies, and murine IL-21R-H/F were immobilized onto a research-grade carboxymethyl-dextran chip (CM5) using standard amine coupling. The sensor chip surface was activated with EDC/NHS for 7 min at a flow rate of 20 μl/min. The first flow cell was used as reference surface to correct for bulk refractive index, matrix effects, and nonspecific binding. […] Remaining activated groups were blocked with 1.0 M ethanolamine (pH 8.0). The molecular weights of the anti-human IgG and the anti-murine IgG were both 150 kD, and the molecular weight of the IL-21R monomer was 27 kD.
(§4) Conditioned media containing anti-IL-21R antibodies and antibody controls (murine anti-human IL-2Rβ and murine anti-human IL-4R(R&D Systems, Minneapolis, Minn.); human anti-human IL-13 (Wyeth, Cambridge, Mass.)) were diluted in HBS/EP buffer supplemented with 0.2% bovine serum and injected onto all four flow cells of the BIACORE™ chip, capturing 500-700 (RU) of antibody on the species-appropriate capture antibody. Following a 5 sec washing period, 50 nM solutions of a positive control protein (murine IL-21R-H/F), two human proteins related to IL-21R (human IL-2Rβ and human sIL-4R(R&D Systems)), or an unrelated His/FLAG-tagged protein (human IL-13-H/F) were injected over the captured antibodies on the chip. The association and dissociation phases were monitored for 120 and 180 sec, respectively, followed by two 5 μl injections of glycine (pH 1.5) to regenerate a fully active capturing surface. All binding experiments were done at 25° C. in HBS/EP buffer. Blank and buffer effects were subtracted for each sensorgram using double referencing.

human IL-13-His/FLAG = target: T6, human IL-13-His/FLAG (human, UniProt P35225 35-146, limits assumed); test: SPR, Ab captured
T6 construct: Unrelated His/FLAG-tagged control; also called human IL-13-H/F
Procedure: as §3, §4

human soluble IL-4R = target: T7, human soluble IL-4R (human, UniProt P24394 26-232, limits assumed); test: SPR, Ab captured
T7 construct: also called human sIL-4R
Procedure: as §3, §4

[11] = target: T4, rat IL-21R expressed on cells; test: cell-based or functional assay

T6 sequence (P35225 35-146 limits assumed): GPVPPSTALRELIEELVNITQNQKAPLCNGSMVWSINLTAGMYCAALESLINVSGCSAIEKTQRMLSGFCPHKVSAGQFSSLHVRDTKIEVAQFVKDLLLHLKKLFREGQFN
Sequence of murine IL-21R expressed on cells (Q9JHX3 20-529 limits assumed): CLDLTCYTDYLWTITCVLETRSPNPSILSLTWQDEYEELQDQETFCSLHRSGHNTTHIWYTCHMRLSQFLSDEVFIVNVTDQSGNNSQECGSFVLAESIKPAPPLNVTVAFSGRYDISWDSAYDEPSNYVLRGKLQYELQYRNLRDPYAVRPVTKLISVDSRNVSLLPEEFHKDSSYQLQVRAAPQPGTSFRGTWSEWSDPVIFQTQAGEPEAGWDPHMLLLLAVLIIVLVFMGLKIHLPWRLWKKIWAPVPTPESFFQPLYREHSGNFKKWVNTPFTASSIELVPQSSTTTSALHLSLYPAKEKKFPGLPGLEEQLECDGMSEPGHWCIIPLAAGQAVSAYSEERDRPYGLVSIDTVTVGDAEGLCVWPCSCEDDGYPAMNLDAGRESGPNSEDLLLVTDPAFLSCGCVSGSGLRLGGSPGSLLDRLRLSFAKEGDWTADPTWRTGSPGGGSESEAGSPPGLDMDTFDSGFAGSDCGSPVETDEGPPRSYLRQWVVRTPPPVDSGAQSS
T3 sequence (Q9HBE5 20-538 limits assumed): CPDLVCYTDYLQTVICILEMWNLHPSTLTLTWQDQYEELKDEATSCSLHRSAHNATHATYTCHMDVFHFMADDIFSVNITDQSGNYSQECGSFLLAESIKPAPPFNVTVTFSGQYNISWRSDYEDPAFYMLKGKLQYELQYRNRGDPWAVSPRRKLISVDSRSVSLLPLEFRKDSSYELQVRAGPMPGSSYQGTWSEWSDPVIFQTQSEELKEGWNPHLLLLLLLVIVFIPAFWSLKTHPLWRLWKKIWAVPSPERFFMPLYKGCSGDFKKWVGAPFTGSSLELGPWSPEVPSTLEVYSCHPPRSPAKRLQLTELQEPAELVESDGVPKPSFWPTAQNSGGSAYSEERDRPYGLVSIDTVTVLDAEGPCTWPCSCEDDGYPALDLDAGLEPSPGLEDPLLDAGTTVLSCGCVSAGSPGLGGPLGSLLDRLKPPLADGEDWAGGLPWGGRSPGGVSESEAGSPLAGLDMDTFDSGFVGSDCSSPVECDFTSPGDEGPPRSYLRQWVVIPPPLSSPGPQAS

Binder | EC50 (read off the curve) [1] [nM] | A450 (13 nM Ab) [2] [A450] | A450 (13 nM Ab) [3] [A450] | A450 (13 nM Ab) [4] [A450] | A450 (13 nM Ab) [5] [A450] | EC50 (read off the curve) [6] [nM] | binding result [7] | EC50 (read off the curve) [8] [nM] | Murine IL-21R-BaF3 Proliferation IC50 [9] [nM] | Human IL-21R-BaF3 Proliferation IC50 [10] [nM] | Human IL-21R-TF1 Proliferation IC50 [10] [nM] | binding result (human IL-2Rβ) | binding result (human IL-13-His/FLAG) | binding result (human soluble IL-4R) | IC50, rat T cell proliferation, experiment 1 [11] [nM] | IC50, rat T cell proliferation, experiment 2 [11] [nM]
AbG (antibody, IgG1, V domains shown, As for AbA: IgG1/lambda, CDR3 graft, residue limits derived; also called VHP/VL18) VH: QVQLQESGPGLVKPSETLSLTCAVSGYSISSGYYWGWIRQPPGKGLEWIGSISHTGNTYYNPPLKSRVTISVDTSKNQFSLKLSSVTAADTAVYYCARGGGISRPEYWGQGTLVTVSS VL: SSELTQDPAVSVALGQTVRITCQGDSLRTYYASWYQQKPGQAPVLVIYGKHKRPSGIPDRFSGSSSGNTASLTITGAQAEDEADYYCVTRSVKGNPHVLFGGGTQLTVL | ~0.5 | 0.108 | 1.11 | 1.3 | 1.35 | ~0.9 | no binding (tested: 40 nM) | ~0.5 | 0.07 | 0.77 | 3.84 | no binding (tested: 50 nM) | no binding (tested: 50 nM) | no binding (tested: 50 nM) |  | 
AbV (antibody, human IgG1, V domains shown) VH: QVQLQESGPGLVKPSETLSLTCAVSGYSISSGYYWGWIRQPPGKGLEWIGSISHTGNTYYNPPLKSRVTISVDTSKNQFSLKLSSVTAADTAVYYCARFMGFGRPEYWGQGTLVTVSS VL: SSELTQDPAVSVALGQTVRITCQGDSLRTYYASWYQQKPGQAPVLVIYGKHKRPSGIPDRFSGSSSGNTASLTITGAQAEDEADYYCVARSVVGNPHVLFGGGTQLTVL |  |  |  |  |  |  |  |  |  |  |  |  |  |  | 70.5 | 59.2
AbC (antibody, IgG1, V domains shown, As for AbA: IgG1/lambda, CDR3 graft, residue limits derived; also called VHP/VL11) VH: QVQLQESGPGLVKPSETLSLTCAVSGYSISSGYYWGWIRQPPGKGLEWIGSISHTGNTYYNPPLKSRVTISVDTSKNQFSLKLSSVTAADTAVYYCARGGGISRPEYWGQGTLVTVSS VL: SSELTQDPAVSVALGQTVRITCQGDSLRTYYASWYQQKPGQAPVLVIYGKHKRPSGIPDRFSGSSSGNTASLTITGAQAEDEADYYCSSRSRHGNPHVLFGGGTQLTVL | ~0.7 | 0.137 | 0.999 | 1.28 | 1.22 | ~1 | no binding (tested: 40 nM) | ~2 | 0.03 | 0.82 | 3.36 | no binding (tested: 50 nM) | no binding (tested: 50 nM) | no binding (tested: 50 nM) |  | 
AbB (antibody, IgG1, V domains shown, As for AbA: IgG1/lambda, CDR3 graft, residue limits derived; also called VHP/VL3) VH: QVQLQESGPGLVKPSETLSLTCAVSGYSISSGYYWGWIRQPPGKGLEWIGSISHTGNTYYNPPLKSRVTISVDTSKNQFSLKLSSVTAADTAVYYCARGGGISRPEYWGQGTLVTVSS VL: SSELTQDPAVSVALGQTVRITCQGDSLRTYYASWYQQKPGQAPVLVIYGKHKRPSGIPDRFSGSSSGNTASLTITGAQAEDEADYYCVSRAVVGNPHVLFGGGTQLTVL | ~1 | 0.107 | 1.09 | 1.33 | 1.15 | ~2 | no binding (tested: 40 nM) | ~0.6 | 0.421 | 1.14 | 3.34 | no binding (tested: 50 nM) | no binding (tested: 50 nM) | no binding (tested: 50 nM) |  | 
AbJ (antibody, IgG1, V domains shown, As for AbA: IgG1/lambda, CDR3 graft, residue limits derived; also called VH3/VLP) VH: QVQLQESGPGLVKPSETLSLTCAVSGYSISSGYYWGWIRQPPGKGLEWIGSISHTGNTYYNPPLKSRVTISVDTSKNQFSLKLSSVTAADTAVYYCARFMGFGRPEYWGQGTLVTVSS VL: SSELTQDPAVSVALGQTVRITCQGDSLRTYYASWYQQKPGQAPVLVIYGKHKRPSGIPDRFSGSSSGNTASLTITGAQAEDEADYYCNSRDSSGNPHVLFGGGTQLTVL | ~0.3 | 0.126 | 1.26 | 1.27 | 1.22 | ~0.4 | no binding (tested: 13 nM) | ~0.3 | 0.4 | 0.65 | 4.6 | no binding (tested: 50 nM) | no binding (tested: 50 nM) | no binding (tested: 50 nM) |  | 
AbA (antibody, V domains shown, Human IgG1/lambda, transiently expressed; also called VHP/VL2) VH: QVQLQESGPGLVKPSETLSLTCAVSGYSISSGYYWGWIRQPPGKGLEWIGSISHTGNTYYNPPLKSRVTISVDTSKNQFSLKLSSVTAADTAVYYCARGGGISRPEYWGQGTLVTVSS VL: SSELTQDPAVSVALGQTVRITCQGDSLRTYYASWYQQKPGQAPVLVIYGKHKRPSGIPDRFSGSSSGNTASLTITGAQAEDEADYYCVARSVVGNPHVLFGGGTQLTVL | ~0.5 | 0.111 | 1.12 | 1.35 | 1.2 | ~0.8 | no binding (tested: 40 nM) | ~0.5 | 0.08 | 0.97 | 3.8 | no binding (tested: 50 nM) | no binding (tested: 50 nM) | no binding (tested: 50 nM) |  | 
